Fold decrease in binding vs WT data for one substance are collected here from US20100203046A1.

For assay [1], the target named is human FcγRIII (CD16), CD16a (F158), on CD16-transfected Jurkat cells (human) (UniProt P08637). Nature of the assay: summary of Table 5 assays.
The target is the same in assay [2]. Briefly: CD16 bridging assay, purified.

Some results are limits rather than exact numbers.

Chain of human FcγRIII (CD16), CD16a (F158), on CD16-transfected Jurkat cells (human) (P08637 17-254): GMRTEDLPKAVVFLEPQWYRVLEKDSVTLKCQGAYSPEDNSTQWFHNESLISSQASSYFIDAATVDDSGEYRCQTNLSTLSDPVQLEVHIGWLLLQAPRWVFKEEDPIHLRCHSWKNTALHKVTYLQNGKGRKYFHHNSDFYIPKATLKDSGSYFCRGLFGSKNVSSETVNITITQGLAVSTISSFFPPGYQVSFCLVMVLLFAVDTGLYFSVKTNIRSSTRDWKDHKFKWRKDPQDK

As to chCB6-huIgG1 Y296S (antibody), the results for the fold decrease in binding vs WT in assay [1] and in assay [2] were over 10 fold and 20 fold, respectively.
